B1: Sla1 1|2|3: WT Sla1 (Sla1-GFP in imaging) (protein, UniProt P32790 1-1244, looked up)
Actin cytoskeleton-regulatory …: MTVFLGIYRAVYAYEPQTPEELAIQEDDLLYLLQKSDIDDWWTVKKRVIGSDSEEPVGLVPSTYIEEAPVLKKVRAIYDYEQVQNADEELTFHENDVFDVFDDKDADWLLVKSTVSNEFGFIPGNYVEPENGSTSKQEQAPAAAEAPAATPAAAPASAAVLPTNFLPPPQHNDRARMMQSKEDQAPDEDEEGPPPAMPARPTATTETTDATAAAVRSRTRLSYSDNDNDDEEDDYYYNSNSNNVGNHEYNTEYHSWNVTEIEGRKKKKAKLSIGNNKINFIPQKGTPHEWSIDKLVSYDNEKKHMFLEFVDPYRSLELHTGNTTTCEEIMNIIGEYKGASRDPGLREVEMASKSKKRGIVQYDFMAESQDELTIKSGDKVYILDDKKSKDWWMCQLVDSGKSGLVPAQFIEPVRDKKHTESTASGIIKSIKKNFTKSPSRSRSRSRSKSNANASWKDDELQNDVVGSAAGKRSRKSSLSSHKKNSSATKDFPNPKKSRLWVDRSGTFKVDAEFIGCAKGKIHLHKANGVKIAVAADKLSNEDLAYVEKITGFSLEKFKANDGSSSRGTDSRDSERERRRRLKEQEEKERDRRLKERELYELKKARELLDEERSRLQEKELPPIKPPRPTSTTSVPNTTSVPPAESSNNNNSSNKYDWFEFFLNCGVDVSNCQRYTINFDREQLTEDMMPDINNSMLRTLGLREGDIVRVMKHLDKKFGRENIASIPTNATGNMFSQPDGSLNVATSPETSLPQQLLPQTTSPAQTAPSTSAETDDAWTVKPASKSESNLLSKKSEFTGSMQDLLDLQPLEPKKAAASTPEPNLKDLEPVKTGGTTVPAAPVSSAPVSSAPAPLDPFKTGGNNILPLSTGFVMMPMITGGDMLPMQRTGGFVVPQTTFGMQSQVTGGILPVQKTGNGLIPISNTGGAMMPQTTFGAAATVLPLQKTGGGLIPIATTGGAQFPQTSFNVQGQQQLPTGSILPVQKTANGLISANTGVSMPTVQRTGGTMIPQTSFGVSQQLTGGAMMTQPQNTGSAMMPQTSFNAVPQITGGAMMPQTSFNALPQVTGGAMMPLQRTGGALNTFNTGGAMIPQTSFSSQAQNTGGFRPQSQFGLTLQKTGGIAPLNQNQFTGGAMNTLSTGGVLQQQQPQTMNTFNTGGVMQELQMMTTFNTGGAMQQPQMMNTFNTDGIMQQPQMMNTFNTGGAMQQPQQQALQNQPTGFGFGNGPQQSRQANIFNATASNPFGF
modifications: GFP tag in imaging
B2: Bzz1 WT (protein, UniProt P38822 1-633, looked up)
Protein BZZ1: MSADLSIGNEIKDSFKETHKWVQNNLKWLKDIEQFYRERAKLEKDYSERLSRLSAEYFNKKSSTSVPISVGDTPTTTPGSIEAAGVVAWNEILSQTDMISKDHDQLSTDFENHVANQLSGLFTKLDMTLSKINGFNNDMVNKKDNIYHELEKAKKDYDEACSTMEMARNRYTKASNDRNKKKLDEKEMEMNKCKNEYLIKINQANRTKDKYYFQDVPEVLDLLQDVNEAKTLFLNDLWLKAASVENDLGANVSKRLQAANSVVKQNKPSLNTAIFIKHNLKNWKEPQDFVYKPSPVWHDDEKFAVPSSLEVEDLRIKLAKAENDYNSLQDKTQNELSKLSTLNKIKHEMKTNEDNINATKFYDTLKEYLNVVSPFTSHETLKLQAEVQIESIQNNVPEEYDLSTDNIDLSKTKKKSGIFSKFKHNILNVDSKPSSGGSTGNGNGGPLHITSLFNTSRRTRLGSAPNNAGEDSDNNSIRTTSTNNTKKTTQNSSDDGKNKVLYAYVQKDDDEITITPGDKISLVARDTGSGWTKINNDTTGETGLVPTTYIRISSAATVKANDRGPAPEVPPPRRSTLPVRTMEAIYAYEAQGDDEISIDPGDIITVIRGDDGSGWTYGECDGLKGLFPTSYCK

Experiments:
[1] = system: Sla1-GFP foci; experiment: Live imaging of endocytosis, Sla1-GFP foci tracking (Fig. 4E-H, S5E-I); assay type: cell-based, Saccharomyces cerevisiae; conditions: for mean effective distance towards centroid: n 3286
Description: Overnight cultures of Sla1-GFP cells were diluted to an OD600 of 0.15 and grown in synthetic complete medium without tryptophan until they reached an OD600 of ~0.4–0.5 at 30 °C. The cells were then seeded on concanavalin A 0.05 mg/mL (Millipore Sigma) coated 8-well glass-bottom chamber slides (Sarstedt). Image acquisition was performed using a Perkin Elmer UltraVIEW confocal spinning disk unit attached to a Nikon Eclipse TE2000-U inverted microscope equipped with a Plan Apochromat DIC H 100×/1.4 oil objective (Nikon), and a Hamamatsu Orca Flash 4.0 LT + camera. Imaging was done at 25 °C in an environmental chamber. The software NIS-Elements (Nikon) was used for image capture. For each field, one brightfield and a series of fluorescence (GFP) images were taken. Cells were excited with a 488 nm laser and emission was filtered with a 530/630 nm filter. GFP time laps were acquired continuously at a rate of 1 frame/sec for 3 min.
Bright-field images were used to segment cells using YeastSpotter[60]. Cells were filtered based on circularity, solidity, and the normalized difference between minor and major axis lengths to remove poorly detected cells. Out-of-focus cells were also filtered out based on size and brightness. The centroids of the segmented cells were used to identify the locations of each cell in the image using Scikit-Image[61]. The location of each cell was used to isolate individual cell time-frames of fluorescence (GFP) images. Each cell time frame of the fluorescence images was processed through a python-based single-particle tracking tool—Trackpy[62]. Trackpy detected the locations of Sla1-GFP positive foci in each frame and linked them together to provide particle-wise trajectories. Trajectories detected in less than ten frames were considered spurious and were filtered out. Segments of the trajectories spuriously indicating movement of the particles back to the cell membrane were trimmed. The preprocessed trajectories of the particles were then used for the calculation of distances using the spatial distance module of “SciPy”[63]. The python-based code used for the analysis of microscopy images is included in the endocytosis module of “htsimaging” package.

[2] = system: SH3-deleted bait proteins (1xFLAG); experiment: Western blot expression level of SH3-deleted baits (Fig. S1F-G); assay type: cell-based, Saccharomyces cerevisiae; conditions: Western blot Flag signal, 1xFLAG-tagged WT or SH3-deleted bait; sheet FigS1F-G
Description: Precultures of yeast cells expressing baits fused with the DHFR F[1,2]-FLAG were grown overnight at 30 °C with agitation in synthetic complete medium. The next day, cells were expanded in synthetic complete medium to reach their exponential phase (OD600 of around 1.0), pelleted, and frozen at −80 °C. The equivalent of fifty OD600 of cells was resuspended in ice-cold yeast lysis buffer (10 mM Tris-HCl pH 7.4, 150 mM NaCl, 0.5 mM EDTA (Millipore Sigma), 1% Triton X-100 (Millipore Sigma), and one cOmplete Mini Protease Inhibitor Cocktail (Millipore Sigma) per 10 mL) with […] glass beads (Millipore Sigma) and disrupted at 4 °C by 10 cycles of 2 min vortexing and 2 min cooldown. The equivalent of […] of lysed cells was used for the immunoprecipitation of the bait proteins using FLAG-M2 agarose beads (Millipore Sigma). The beads were incubated with the cell lysates for 120 min at 4 °C with a slow rotation, followed by three washes with the yeast lysis buffer.
Protein extracts and affinity-purified baits from yeast and human lysed cells were migrated on 10% polyacrylamide gels. The separated proteins were then transferred to nitrocellulose membranes. Validation of correct protein loading was done with ponceau staining of the membranes. Before the primary antibody incubations, membranes were blocked in 5% milk. Protein signals were detected on an Amersham Imager 600RGB (GE Healthcare) following the incubation of the membranes with the appropriate HRP-conjugated secondary antibodies and the Clarity Western ECL Substrate (Bio-Rad). The antibodies used in this study are M2-HRP (A8592, Sigma, 1/50,000), rabbit anti-FLAG (F7425, Sigma, 1/1000), PAK (SC-881, Santa Cruz, 1/200), p130cas/BCAR1 (SC-860, Santa Cruz, 1/200), actin (Cell Signaling Technology, 1/2000), anti-mouse HRP (Cell Signaling Technology, 1/10,000) and anti-rabbit HRP (Cell Signaling Technology, 1/10,000). The quantification of the WB signals was performed with the Amersham Imager 600 analysis software (GE Healthcare).

[3] = Fig4H,S5G, SLA1 SH3-shuffled or -deleted strain

| Molecule | complete [1, 3] | incomplete [1, 3] | mean effective distance towards centroid ([1]; time 0) | mean effective distance towards centroid ([1]; time 1) | mean effective distance towards centroid ([1]; time 2) | mean effective distance towards centroid ([1]; time 3) | mean effective distance towards centroid ([1]; time 4) | Flag [2] |
| --- | --- | --- | --- | --- | --- | --- | --- | --- |
| B1 | 23.1408 | 3.31 | 0 | 1.1628 | 1.132 | 2.413 | 3.293 | – |
| B2 | – | – | – | – | – | – | – | 215050 |
